Results from patent US10323078B2, “Isolated peptides and fragments thereof from fibrinogen for use as drugs, particularly in skin inflammatory diseases” (Universite Paris Descartes, priority 2015, dated 2019).

Key:
Pfg = test: Western ligand blot with biotinylated Pfg; assay type: binding, Propionibacterium acnes; settings: biotinylated Pfg 0.1 μg/ml
[1] = test system: monocytes and fibroblasts; test: TNF-α production by cells stimulated with P. acnes, overall statement; assay type: cell-based, human; settings: the 3 bacterial tested strains
Procedure: For experiences of stimulation with P. acnes, cells were incubated with the P. acnes suspension adjusted at the appropriate concentration, pre-treated for 1 h at 37° C. or not with fibrinogen recombinant peptides Fg1 and Fg2 at the concentrations 0.87, 1.75, 3.5 or 7 μM for the desired period of time at 37° C. in 5% CO2.
Human IL-1ß, IL-8, IL-12, hBD-2, and TNF-α protein concentration was measured in the supernatants of stimulated cells using various ELISA Set kits (Ready-Set-Go kit from eBioscience for acne experiments, and for psoriasis experiments the Duo set IL-8 kit from R&D Systems and the BD-2 Human Development (hBD-2) from Peprotech) according to the manufacturer's instructions. We used serial dilutions of recombinant human IL-1ß, IL-8, IL-12 and TNF-α for standard curve. The optical density was determined at 450 nm at a wavelength correction of 540 nm.
To assess the efficacy of Fg1 recombinant peptide, the production of O2^∘− and H2O2 by HaCaT cells NHDK, THP-1, MRC5 and HDF stimulated by pretreated P. acnes strains 6919, RON and PIE was measured. The amount of ROS produced was compared to that produced by the stimulated cells with untreated bacteria. Production baseline was obtained by measuring ROS on unstimulated cells. The production of IL-1ß, IL-8, IL-12 and TNF-α was also measured in all conditions cited above. […]

## human fibrinogen: purified commercial human fibrinogen (Sigma), glycoprotein hexamer of Aα, Bß and γ chains
Pfg; 10 μg per lane, 10% SDS-PAGE
  Recognition by biotinylated Pfg after electrophoretic separation of fibrinogen: recognized by Pfg

B1: MKRMVSWSFHKLKTMKHLLLLLLCVFLVKSQGVNDNEEGFFSARGHRPLDKKREEAPSLRPAPPPISGGGYRARPAKAAATQKKVERKAPDAGGCLHADPDLGVLC (protein)
chain: MKRMVSWSFHKLKTMKHLLLLLLCVFLVKSQGVNDNEEGFFSARGHRPLDKKREEAPSLRPAPPPISGGGRARPAKAAATQKKVERKAPDAGGCLHADPDLGVLCMKRMVSWSFHKLKTMKHLLLLLLCVFLVKSQGVNDNEEGFFSARGHRPLDKKREEAPSLRPAPPPISGGGYRARPAKAAATQKKVERKAPDAGGCLHADPDLGVLC
modifications: GST fusion; fragment Fg1
notes: fragment of Bß chain of human fibrinogen having 106 amino acids; recombinant GST-fused peptide expressed in E. coli
Pfg; E. coli total protein after IPTG induction, 12.5% SDS-PAGE
  Recognition of GST-fused recombinant Bß fibrinogen fragments by biotinylated Pfg: recognized
[1]
  Decrease of the production of TNF-α: dose-response effect on the decrease of the production of TNF-α
